Test results: PMC4157346
pKd: −log10 of the molar value.

Key:
[1] = molecular target: CXCR1 receptor on stably transfected RBL-2H3 cells (UniProt P25024)
[2] = molecular target: CXCR1 receptor on stably transfected RBL-2H3 cells (UniProt P25024); assay: radioligand binding
[3] = molecular target: CXCR2 receptor on stably transfected RBL-2H3 cells (human) (UniProt P25025); assay: radioligand binding

Row | Substance | EC50 of Ca2+ release, CXCR1-transfected RBL-2H3 cells [1] [nM] | pKd [2] | pKd [3]
1 | CXCL8 wild type (from UniProt P10145 21-99) (ligand) | 2.5 | 8.39 | 8.27
2 | CXCL8 P32G mutant (ligand) | > 1000 |  | 
3 | CXCL8 G31V mutant (ligand) | 22.9 |  | 
4 | CXCL8 P32A mutant (ligand) | 10.7 |  | 
